In patent US10023484B2, “Use of peracetic acid/hydrogen peroxide and peroxide-reducing agents for treatment of drilling fluids, frac fluids, flowback water and disposal water” (Ecolab USA Inc., priority 2012, dated 2018):

What was measured:
[1] = Field application of catalase (ES 2000) in pond water: room temperature, sunlight, shielded (Example 22); format: physicochemical
Procedure: A field of use application was analyzed to determine efficacy of the peroxide-reducing catalase enzyme in pond waters under ambient conditions. Catalase (ES 2000) was used in a pond water source (370000 barrel (bbl.)) to reduce/eliminate H2O2 in a POAA peracid composition. The pond water when sampled contained both POAA and H2O2. The treatments analyzed were based on established laboratory data, which at 1 ppm use level selectively eliminated H2O2 to zero within 4 hours. […] Therefore, 100 gram samples of the pond water were used to add various levels of either 1 ppm catalase (Table 33) or 2 ppm catalase (Table 34).
The samples were then stored at various conditions identified: ambient room temperature, outside under sunlight, outside shielded from sunlight. The level of hydrogen peroxide was assayed at various times (shown at 0 hours and 2 hours) to check the functionality of the catalase peroxide-reducing agent. As referred to in the Tables, the following measurements are set forth as follows: EP1 V (ml 0.05N Na2S2O3) and EP2 V (ml 0.05N Na2S2O3).

[2] = system: produced water samples (planktonic bacteria); test: Planktonic kill study, ATP quantification assay; format: cell-based; conditions: PAA/H2O2 25 ppm
Procedure: Planktonic kill studies were performed as an evaluation of biocide efficiency for PAA/H2O2 and PAA/H2O2/Catalase applications. Briefly, produced water samples were used to test the kill efficiency of PAA/H2O2 at the following dosages: 25, 50, 75, 150 and 300 ppm PAA. Concentration of catalase was fixed at 1000 ppm. The contact time was set to 10 and 60 minutes. After contact time, bacterial enumeration was performed using ATP quantification assay. Bacterial enumeration was calculated at the end of the appropriate time and biocide efficacy determined by comparison to an untreated sample.

[3] = Hydrogen peroxide reduction by catalase in 2%, 3%, 5% peracid compositions, iodometric assay (Example 13); format: physicochemical
Procedure: The concentration of peracid compositions was evaluated to determine the peroxide-reducing capability of enzymes. A catalase enzyme was evaluated for efficacy in reducing hydrogen peroxide at varying concentrations under increasingly concentrated peracid compositions. The commercially-available peracid (POAA) composition EnviroSan (Ecolab, Inc., St. Paul, Minn.) was evaluated using catalase enzymes added to 2%, 3%, and 5% peracid compositions. The catalase enzymes were added to the POAA solution and gently stirred under ambient conditions. After the addition of catalase, the stirring was discontinued, and the samples were taken for iodometric assay.

[4] = Catalase (ES2000) amount needed in treated water source, iodometric titration (Example 15); format: physicochemical
Procedure: Field of use applications were analyzed to determine the amount of a peroxide-reducing enzyme necessary to obtain desired concentrations of both peracid and hydrogen peroxide in a treated water source. EnviroSan (POAA) peracid composition was added to water to reach the targeted POAA concentrations set forth in Table 18, and the concentration of both POAA and H2O2 were confirmed by iodometric titration. Then catalase (ES2000) was added to the solution, and the sample was stored under ambient conditions. The concentration of POAA and H2O2 were monitored by the iodometric conditions.

[5] = POAA and H2O2 loss with Mo peroxide-reducing agent (Example 20); format: physicochemical; conditions: 10 g Mo
Excerpt: (§1) Various additional inorganic metals and metal compounds were further evaluated for use as peroxide decomposition catalysts (e.g. peroxide-reducing agents) according to the methods of the invention. The metals were provided as solid catalysts to POAA solutions.

[6] = POAA and H2O2 loss with CoMo peroxide-reducing agent (Example 20); format: physicochemical; conditions: 10 g CoMo
Excerpt: as §1

[7] = POAA and H2O2 loss with NiW peroxide-reducing agent (Example 20); format: physicochemical; conditions: 10 g NiW
Excerpt: as §1

[8] = POAA and H2O2 loss with NiMo peroxide-reducing agent (Example 20); format: physicochemical; conditions: 10 g NiMo
Excerpt: as §1

[9] = 1 ppm catalase, Ambient Room, Time 0.00 hr
[10] = 1 ppm catalase, Ambient Room, Time 2.00 hr
[11] = 1 ppm catalase, Outside shield from the sunlight, Time 0.00 hr
[12] = 1 ppm catalase, Outside shield from the sunlight, Time 2.00 hr
[13] = 1 ppm catalase, Outside under the sunlight, Time 0.00 hr
[14] = 1 ppm catalase, Outside under the sunlight, Time 2.00 hr
[15] = 2 ppm catalase, Ambient Room, Time 0.00 hr
[16] = 2 ppm catalase, Ambient Room, Time 2.00 hr
[17] = 2 ppm catalase, Outside shield from the sunlight, Time 0.00 hr
[18] = 2 ppm catalase, Outside shield from the sunlight, Time 2.00 hr
[19] = 2 ppm catalase, Outside under the sunlight, Time 0.00 hr
[20] = 2 ppm catalase, Outside under the sunlight, Time 2.00 hr
[21] = 2% POAA, 1500 ppm Catalase, 0 min.
[22] = 2% POAA, 1500 ppm Catalase, 6.5 min.
[23] = 3% POAA, 1500 ppm Catalase, 0 min.
[24] = 3% POAA, 1500 ppm Catalase, 6.5 min.
[25] = 3% POAA, 1500 ppm Catalase, 10 min.
[26] = 3% POAA, 1500 ppm Catalase, 15 min.
[27] = 3% POAA, 2500 ppm Catalase, 0 min.
[28] = 3% POAA, 2500 ppm Catalase, 6.5 min.
[29] = 3% POAA, 2500 ppm Catalase, 10 min.
[30] = 3% POAA, 2500 ppm Catalase, 15 min.
[31] = 5% POAA, 1500 ppm Catalase, 0 min.
[32] = 5% POAA, 1500 ppm Catalase, 6.5 min.
[33] = 0.5 ppm catalase, series starting at 14.6 ppm POAA, 0 hr
[34] = 0.5 ppm catalase, series starting at 14.6 ppm POAA, 1 hr
[35] = 0.5 ppm catalase, series starting at 14.6 ppm POAA, 2 hr
[36] = 0.5 ppm catalase, series starting at 14.6 ppm POAA, 3.6 hr
[37] = 0.5 ppm catalase, series starting at 31.1 ppm POAA, 0 hr
[38] = 0.5 ppm catalase, series starting at 31.1 ppm POAA, 1 hr
[39] = 0.5 ppm catalase, series starting at 31.1 ppm POAA, 2 hr
[40] = 0.5 ppm catalase, series starting at 31.1 ppm POAA, 3.6 hr
[41] = 1.0 ppm catalase, series starting at 14.8 ppm POAA, 0 hr
[42] = 1.0 ppm catalase, series starting at 14.8 ppm POAA, 1 hr
[43] = 1.0 ppm catalase, series starting at 14.8 ppm POAA, 2 hr
[44] = 1.0 ppm catalase, series starting at 14.8 ppm POAA, 3.6 hr
[45] = 1.0 ppm catalase, series starting at 30.1 ppm POAA, 0 hr
[46] = 1.0 ppm catalase, series starting at 30.1 ppm POAA, 1 hr
[47] = 1.0 ppm catalase, series starting at 30.1 ppm POAA, 2 hr
[48] = 1.0 ppm catalase, series starting at 30.1 ppm POAA, 3.6 hr

Catalase showed an H2O2 [1, 9] of 6.8 ppm, a POAA [1, 9] of 5.7 ppm and an H2O2 [1, 10] of 1.3 ppm. For the same compound, the POAA [1, 10] was 5.7 ppm, the H2O2 [1, 11] was 6.8 ppm and the POAA [1, 11] was 5.7 ppm. For the same compound, the H2O2 [1, 12] was 0.9 ppm, the POAA [1, 12] was 5.7 ppm and the H2O2 [1, 13] was 6.8 ppm. It also gave a POAA [1, 13] of 5.7 ppm, an H2O2 [1, 14] of 6.8 ppm and a POAA [1, 14] of 4.75 ppm. For the same compound, the H2O2 [1, 15] was 6.8 ppm, the POAA [1, 15] was 5.7 ppm and the H2O2 [1, 16] was 0.0 ppm. The POAA [1, 16] was 5.7 ppm, the H2O2 [1, 17] was 6.8 ppm and the POAA [1, 17] was 5.7 ppm. It also gave an H2O2 [1, 18] of 0.0 ppm, a POAA [1, 18] of 5.7 ppm and an H2O2 [1, 19] of 6.8 ppm. For the same compound, the POAA [1, 19] was 5.7 ppm, the H2O2 [1, 20] was 4.3 ppm and the POAA [1, 20] was 4.75 ppm. For the same compound, the “increase of biocide efficiency by addition of 1000 ppm catalase” value ([2]; after 10 minutes) was 48%, the “increase of biocide efficiency by addition of 1000 ppm catalase” value ([2]; after 60 minutes) was 23% and the H2O2 [3, 21] was 1.36% H2O2. It also gave a POAA [3, 21] of 2.0% POAA, an H2O2 [3, 22] of 0.08% H2O2 and a POAA [3, 22] of 2.05% POAA. The H2O2 [3, 23] was 2.04% H2O2, the POAA [3, 23] was 3.0% POAA and the H2O2 [3, 24] was 0.33% H2O2. It also gave a POAA [3, 24] of 2.97% POAA, an H2O2 [3, 25] of 0.23% H2O2 and a POAA [3, 25] of 2.83% POAA. For the same compound, the H2O2 [3, 26] was 0.21% H2O2, the POAA [3, 26] was 2.95% POAA and the H2O2 [3, 27] was 2.04% H2O2. The POAA [3, 27] was 2.0% POAA, the H2O2 [3, 28] was 0.33% H2O2 and the POAA [3, 28] was 2.99% POAA. It also gave an H2O2 [3, 29] of 0.23% H2O2, a POAA [3, 29] of 2.95% POAA and an H2O2 [3, 30] of 0.21% H2O3. It also gave a POAA [3, 30] of 2.87% POAA, an H2O2 [3, 31] of 3.40% H2O2 and a POAA [3, 31] of 5.0% POAA. For the same compound, the H2O2 [3, 32] was 3.81% H2O2, the POAA [3, 32] was 4.96% POAA and the “H2O2 (ppm)” value [4, 33] was 12.0 ppm. The “POAA (ppm)” value [4, 33] was 14.6 ppm, the “H2O2 (ppm)” value [4, 34] was 7.5 ppm and the “POAA (ppm)” value [4, 34] was 15.0 ppm. For the same compound, the “H2O2 (ppm)” value [4, 35] was 6.5 ppm, the “POAA (ppm)” value [4, 35] was 14.3 ppm and the “H2O2 (ppm)” value [4, 36] was 1.8 ppm. The “POAA (ppm)” value [4, 36] was 14.2 ppm, the “H2O2 (ppm)” value [4, 37] was 22.8 ppm and the “POAA (ppm)” value [4, 37] was 31.1 ppm. For the same compound, the “H2O2 (ppm)” value [4, 38] was 12.2 ppm, the “POAA (ppm)” value [4, 38] was 32.0 ppm and the “H2O2 (ppm)” value [4, 39] was 7.8 ppm. The “POAA (ppm)” value [4, 39] was 29.2 ppm, the “H2O2 (ppm)” value [4, 40] was 3.4 ppm and the “POAA (ppm)” value [4, 40] was 30.6 ppm. For the same compound, the “H2O2 (ppm)” value [4, 41] was 12.6 ppm, the “POAA (ppm)” value [4, 41] was 14.8 ppm and the “H2O2 (ppm)” value [4, 42] was 3.7 ppm. The “POAA (ppm)” value [4, 42] was 14.6 ppm, the “H2O2 (ppm)” value [4, 43] was 1.1 ppm and the “POAA (ppm)” value [4, 43] was 14.2 ppm. For the same compound, the “H2O2 (ppm)” value [4, 44] was 0.4 ppm, the “POAA (ppm)” value [4, 44] was 15.9 ppm and the “H2O2 (ppm)” value [4, 45] was 23.3 ppm. The “POAA (ppm)” value [4, 45] was 30.1 ppm, the “H2O2 (ppm)” value [4, 46] was 7.6 ppm and the “POAA (ppm)” value [4, 46] was 31.0 ppm. The “H2O2 (ppm)” value [4, 47] was 2.3 ppm, the “POAA (ppm)” value [4, 47] was 29.6 ppm and the “H2O2 (ppm)” value [4, 48] was 0.0 ppm. The “POAA (ppm)” value [4, 48] was 29.3 ppm.

With `OO` [H2O2] the “H2O2 Concentration” value ([5]; Time 0) was 1615, the “H2O2 Concentration” value ([5]; Time 15) was 1334.5 and the “H2O2 Concentration” value ([5]; Time 30) was 1181.5. The “H2O2 Concentration” value ([5]; Time 45) was 986, the “H2O2 Concentration” value ([5]; Time 60) was 841.5 and the “H2O2 Concentration” value ([6]; Time 0) was 1615. The “H2O2 Concentration” value ([6]; Time 15) was 1343, the “H2O2 Concentration” value ([6]; Time 30) was 1156 and the “H2O2 Concentration” value ([6]; Time 45) was 994.5. The “H2O2 Concentration” value ([6]; Time 60) was 841.5, the “H2O2 Concentration” value ([7]; Time 0) was 1615 and the “H2O2 Concentration” value ([7]; Time 15) was 1581. For the same compound, the “H2O2 Concentration” value ([7]; Time 30) was 1598, the “H2O2 Concentration” value ([7]; Time 45) was 1615 and the “H2O2 Concentration” value ([7]; Time 60) was 1615. The “H2O2 Concentration” value ([8]; Time 0) was 1615, the “H2O2 Concentration” value ([8]; Time 15) was 1581 and the “H2O2 Concentration” value ([8]; Time 30) was 1555.5. For the same compound, the “H2O2 Concentration” value ([8]; Time 45) was 1530 and the “H2O2 Concentration” value ([8]; Time 60) was 1496.
